{"source": "paper PMC4788497", "about": "(Methods in molecular biology (Clifton, N.J.), 2014)", "biological_target": "the molecule itself", "assay": "SEC"}
{"protein": "DGCR8 NC1 (amino acid residues 276-751 of human DGCR8), Fe(III) heme-bound dimer (domain or fragment, UniProt Q8WYQ5 276-751, looked up) DGETSVQPMMTKIKTVLKSRGRPPTEPLPDGWIMTFHNSGVPVYLHRESRVVTWSRPYFLGTGSIRKHDPPLSSIPCLHYKKMKDNEEREQSSDLTPSGDVSPVKPLSRSAELEFPLDEPDSMGADPGPPDEKDPLGAEAAPGALGQVKAKVEVCKDESVDLEEFRSYLEKRFDFEQVTVKKFRTWAERRQFNREMKRKQAESERPILPANQKLITLSVQDAPTKKEFVINPNGKSEVCILHEYMQRVLKVRPVYNFFECENPSEPFGASVTIDGVTYGSGTASSKKLAKNKAARATLEILIPDFVKQTSEEKPKDSEELEYFNHISIEDSRVYELTSKAGLLSPYQILHECLKRNHGMGDTSIKFEVVPGKNQKSEYVMACGKHTVRGWCKNKRVGKQLASQKILQLLHPHVKNWGSLLRMYGRESSKMVKQETSDKSVIELQQYAKKNKPNLHILSKLQEEMKRLAEEREETRK", "values": [{"measurement": "binding result", "value": "binds"}]}
